Legend:
[1] = target: T1, human wild-type Sema3A of SEQ ID NO: 600, expressed by HEK293 cells (human, UniProt Q14563 22-771, limits assumed); assay: cell-based or functional assay
T1 sequence: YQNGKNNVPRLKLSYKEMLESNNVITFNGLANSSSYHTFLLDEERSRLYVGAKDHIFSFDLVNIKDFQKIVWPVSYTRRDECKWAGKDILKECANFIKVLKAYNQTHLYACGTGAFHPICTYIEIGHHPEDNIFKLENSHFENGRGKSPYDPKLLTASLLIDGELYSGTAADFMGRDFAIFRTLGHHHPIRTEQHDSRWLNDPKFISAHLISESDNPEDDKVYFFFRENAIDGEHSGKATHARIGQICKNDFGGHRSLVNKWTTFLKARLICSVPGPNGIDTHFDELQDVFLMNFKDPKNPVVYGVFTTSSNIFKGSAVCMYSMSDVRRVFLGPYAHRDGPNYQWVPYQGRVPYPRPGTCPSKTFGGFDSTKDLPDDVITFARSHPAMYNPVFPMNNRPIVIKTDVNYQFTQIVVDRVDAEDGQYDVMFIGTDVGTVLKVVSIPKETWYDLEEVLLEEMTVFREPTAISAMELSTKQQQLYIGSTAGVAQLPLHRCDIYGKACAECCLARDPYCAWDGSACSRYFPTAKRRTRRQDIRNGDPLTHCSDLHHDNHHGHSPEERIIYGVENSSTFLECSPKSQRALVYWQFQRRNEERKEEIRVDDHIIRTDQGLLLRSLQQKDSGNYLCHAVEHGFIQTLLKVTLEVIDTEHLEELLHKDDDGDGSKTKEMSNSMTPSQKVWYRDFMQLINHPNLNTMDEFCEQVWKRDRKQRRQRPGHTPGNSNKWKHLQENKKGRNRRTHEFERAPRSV

[2] = target: T2, Rat Semaphorin3A-Sema Domain, TPP-19120 (rat, UniProt Q63548 21-569); assay: SPR, captured antibody, Sema3A domain analyte
T2 construct: produced inhouse
T2 sequence: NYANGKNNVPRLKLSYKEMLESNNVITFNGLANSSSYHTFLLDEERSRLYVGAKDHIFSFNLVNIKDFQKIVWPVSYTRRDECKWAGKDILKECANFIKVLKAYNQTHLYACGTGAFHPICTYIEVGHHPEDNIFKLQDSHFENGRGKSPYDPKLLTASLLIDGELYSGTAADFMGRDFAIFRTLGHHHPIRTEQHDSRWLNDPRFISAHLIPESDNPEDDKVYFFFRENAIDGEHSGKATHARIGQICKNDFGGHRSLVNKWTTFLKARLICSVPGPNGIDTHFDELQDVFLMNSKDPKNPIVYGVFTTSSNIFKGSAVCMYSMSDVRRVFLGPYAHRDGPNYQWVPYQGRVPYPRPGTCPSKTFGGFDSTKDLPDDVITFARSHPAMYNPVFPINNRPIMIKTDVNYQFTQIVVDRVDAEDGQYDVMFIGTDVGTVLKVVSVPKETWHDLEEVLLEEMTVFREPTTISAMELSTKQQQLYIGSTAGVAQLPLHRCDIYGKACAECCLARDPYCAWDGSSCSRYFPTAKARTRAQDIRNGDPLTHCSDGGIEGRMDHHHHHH
Description: To assess the binding activity of anti-Sema3A antibodies binding assays were conducted using surface plasmon resonance (SPR). Binding assays were performed on a Biacore T200 instrument (Cytiva) at 25° C. using assay buffer HBS P+, 300 mM NaCl, 0.75 mM CaCl₂, 2.5 mM MgCl₂, 1 mg/ml BSA, 0.05% NaN₃. Antibodies were captured via anti-human Fc IgGs (“Human antibody capture kit”, Order No. BR100839, Cytiva) covalently amine coupled to a Series S CM5 sensor chip (Cytiva). The amine coupling was carried out according to the manufacturer's instructions using 1-ethyl-3-(3-dimethylaminopropyl) carbodiimide hydrochloride (EDC), N-hydroxysuccinimide (NHS) and ethanolamine HCl, pH 8.5 (“Amine Coupling Kit” BR-1000-50, Cytiva.). Human, mouse, cynomolgus, rat, dog and pig monovalent Sema3A domain were used as analytes in a concentration series from 0.024-3.125 nM in multi cycle kinetics mode. The sensor surface was regenerated with glycine pH 2.0 after each antigen injection. Obtained sensorgrams were double referenced (subtraction of reference flow cell signal and buffer injection) and were fitted to a 1:1 Langmuir binding model using the Biacore T200 Evaluation software obtaining the experimental fitted RMax value. To calculate the binding activity first the theoretical RMax needs to be calculated according to equation 1: […]
Binding activity was determined by dividing the experimental determined RMax by the theoretical calculated RMax according to equation 2: […]

[3] = target: Human Semaphorin3A-Fc (R&D Systems), TPP-13211 (human); assay: cell-based or functional assay
[4] = target: T3, Human Semaphorin3A-Fc (R&D Systems), TPP-13211 (human); assay: competition ELISA on coated TPP-13211, competitor biotinylated TPP-15370
T3 construct: R&D Systems 1250-S3; also called recombinant human Sema3A-Fc chimera
Description: For screening in a competition ELISA setup, human Sema3a (TPP-13211) was coated onto 384-well plates (Greiner bio-one, 781077) with a concentration of 0.5 μg/ml in coating buffer (Carbonate-Basis pH 9.6, Candor 121125) over night at 10° C. After washing the plates 3 times with 50 μl PBS 0.05% Tween the plates were blocked with 50 μl Smart Block® (Candor 113500) for 1 h at 20° C. and washed again 3 times as described.
Subsequently, 20 μl of pre-mixed antibody solution was added to the plates and incubate for 18 h at 10° C. […] The total concentration of the added antibody solution was 0.25 μg/ml. During the incubation time the antibodies bound to the plates in a competitive manner as they compete for the same epitope on the human Sema3A protein.
After subsequent washing with 50 μl PBS 0.05% Tween for 3 times, 20 μl of a Streptavidin-HRP solution (R&D Systems, DY998, 1:200 in PBS 0.05% Tween 10% Smart Block) were added and incubated for 1 h and 20° C. followed by subsequent washing 3 times with 50 μl PBS 0.05% Tween and addition of 20 μl Amplex Red solution (Invitrogen A12222, 1:1000 in NaP-buffer 50 mM pH7.6 with 1:10000 of 30% H2O2). After a final incubation for 20 min at 20° C. the signal was determined using an emission wavelength of 595 nm and excitation of 530 nm.

T3 sequence (chain, as listed by the source limits assumed): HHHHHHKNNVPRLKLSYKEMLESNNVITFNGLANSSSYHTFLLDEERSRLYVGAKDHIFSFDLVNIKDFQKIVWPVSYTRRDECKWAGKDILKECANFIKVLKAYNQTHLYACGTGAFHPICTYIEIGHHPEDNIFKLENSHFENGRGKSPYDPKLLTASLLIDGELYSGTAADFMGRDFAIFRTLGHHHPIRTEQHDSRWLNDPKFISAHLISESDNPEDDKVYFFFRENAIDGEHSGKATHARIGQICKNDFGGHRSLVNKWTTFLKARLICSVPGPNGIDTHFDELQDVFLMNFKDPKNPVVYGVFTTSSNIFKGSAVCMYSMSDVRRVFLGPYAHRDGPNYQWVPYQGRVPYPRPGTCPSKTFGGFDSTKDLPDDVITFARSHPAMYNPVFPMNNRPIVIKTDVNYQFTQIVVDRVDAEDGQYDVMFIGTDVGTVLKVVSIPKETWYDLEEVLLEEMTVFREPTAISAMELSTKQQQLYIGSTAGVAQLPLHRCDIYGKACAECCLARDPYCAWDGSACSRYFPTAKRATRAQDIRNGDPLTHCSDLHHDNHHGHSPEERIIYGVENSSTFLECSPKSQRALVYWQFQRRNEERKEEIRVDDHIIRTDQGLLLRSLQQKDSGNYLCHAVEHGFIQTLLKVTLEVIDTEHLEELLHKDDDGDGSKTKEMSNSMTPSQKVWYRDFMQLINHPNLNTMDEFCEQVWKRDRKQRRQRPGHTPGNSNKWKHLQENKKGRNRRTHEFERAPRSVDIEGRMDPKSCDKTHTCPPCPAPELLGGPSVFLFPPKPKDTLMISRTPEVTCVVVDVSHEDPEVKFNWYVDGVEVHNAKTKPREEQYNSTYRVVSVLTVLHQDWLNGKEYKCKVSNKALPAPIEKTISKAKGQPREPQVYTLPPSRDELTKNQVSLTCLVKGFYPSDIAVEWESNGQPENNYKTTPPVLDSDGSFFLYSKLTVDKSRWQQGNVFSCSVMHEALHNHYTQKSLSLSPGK

B1: TPP-15370 (antibody, human IgG1, lambda, V domains shown)
VH: EVQLLESGGGLVQPGGSLRLSCAASGFTFSSYGMHWVRQAPGKGLEWVSAIGTGGDTYYADSVMGRFTISRDNSKNTLYLQMNSLRAEDTAVYYCARRDDYTSRDAFDVWGQGTLVTVSS
VL: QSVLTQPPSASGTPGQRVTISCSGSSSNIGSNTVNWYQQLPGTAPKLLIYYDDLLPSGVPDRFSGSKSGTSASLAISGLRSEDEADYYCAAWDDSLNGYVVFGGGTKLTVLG
notes: human IgG1; also called IgG1, hit from panning; parental mAb
Question: How did the “EC50 (pM), HUVEC repulsion assay” value [1] turn out when B1 was run?
Answer: 800 pM

Question: What about the “Binding Activity [%]” value [2] of the same binder?
Answer: 113%

Question: And the “EC50 (nM), GCC assay” value [3]?
Answer: 4.33 nM

Question: What about the “VAL norm to TPP-9809 (1 to 1 ratio)” value [4] of the same binder?
Answer: 0.67

Question: What about the “VAL norm to TPP-9809 (1 to 5 ratio)” value [4] of the same binder?
Answer: 0.54

From patent US20240254222A1 (Bayer, published 2024)
